{"source": "the RNAGym collection of RNA variant scans (doi:10.7554/elife.80360)", "parents": {"B1": {"name": "CPEB3 Ribozyme (parent)", "chain": "GGGGGCCACAGCAGAAGCGUUCACGUCGCGGCCCCUGUCAGAUUCUGGUGAAUCUGCGAAUUCUGCUGU"}}}
{"variants_of": "B1", "experiment": "self-cleavage, relative activity (ratio to wild type); higher = more cleavage; co-transcriptional"}
{"variant": "A10U C45U", "self-cleavage": 0.958}
{"variant": "G11A G48C", "self-cleavage": 0.951}
{"variant": "G11A G48U", "self-cleavage": 0.885}
{"variant": "G11C C54U", "self-cleavage": 0.618}
{"variant": "G11C C54G", "self-cleavage": 0.261}
{"variant": "G11A U53C", "self-cleavage": 0.352}
{"variant": "G11A U53G", "self-cleavage": 0.622}
{"variant": "G11C U21C", "self-cleavage": 0.431}
{"variant": "G11C U21G", "self-cleavage": 0.199}
{"variant": "G11C U20C", "self-cleavage": 0.158}
{"variant": "G11C U20A", "self-cleavage": 0.115}
{"variant": "G11C A15U", "self-cleavage": 0.188}
{"variant": "G11C A15C", "self-cleavage": 0.497}
{"variant": "G11U C12G", "self-cleavage": 0.577}
{"variant": "G11U C12U", "self-cleavage": 0.44}
{"variant": "G11U C12A", "self-cleavage": 0.549}
{"variant": "G11U A15U", "self-cleavage": 0.295}
{"variant": "G11A A15G", "self-cleavage": 0.807}
{"variant": "G11A A15U", "self-cleavage": 0.574}
{"variant": "A10U U64C", "self-cleavage": 0.778}
{"variant": "G11A G37A", "self-cleavage": 0.188}
{"variant": "G11A G37C", "self-cleavage": 0.196}
{"variant": "G11A G68A", "self-cleavage": 0.956}
{"variant": "G11A G68U", "self-cleavage": 0.915}
{"variant": "G11A G68C", "self-cleavage": 0.947}
{"variant": "G11C A60G", "self-cleavage": 0.434}
{"variant": "G11C A60U", "self-cleavage": 0.243}
{"variant": "G11C U62C", "self-cleavage": 0.402}
{"variant": "G11C U62G", "self-cleavage": 0.251}
{"variant": "G11C U62A", "self-cleavage": 0.409}
{"variant": "G11C G58A", "self-cleavage": 0.82}
{"variant": "A10U G14C", "self-cleavage": 0.482}
{"variant": "A10U G14A", "self-cleavage": 0.622}
{"variant": "G11A C29G", "self-cleavage": 0.148}
{"variant": "G11A C29U", "self-cleavage": 0.0741}
{"variant": "G11A C29A", "self-cleavage": 0.26}
{"variant": "G11A U67C", "self-cleavage": 0.996}
{"variant": "G11A U67G", "self-cleavage": 0.98}
{"variant": "A10U U49A", "self-cleavage": 0.989}
{"variant": "A10U U49G", "self-cleavage": 1.01}
{"variant": "A10U U49C", "self-cleavage": 1}
{"variant": "G11C U36G", "self-cleavage": 0.18}
{"variant": "G11C U36C", "self-cleavage": 0.62}
{"variant": "G11C U36A", "self-cleavage": 0.0623}
{"variant": "G11C C33G", "self-cleavage": 0.507}
{"variant": "G11U C18G", "self-cleavage": 0.0807}
{"variant": "G11U C18A", "self-cleavage": 0.0522}
{"variant": "G11U C18U", "self-cleavage": 0.372}
{"variant": "G11A G47C", "self-cleavage": 0.895}
{"variant": "G11A G47U", "self-cleavage": 0.937}
{"variant": "G11A G47A", "self-cleavage": 0.942}
{"variant": "G11C A51C", "self-cleavage": 0.624}
{"variant": "G11C A51U", "self-cleavage": 0.621}
{"variant": "G11C A51G", "self-cleavage": 0.73}
{"variant": "G11A A40C", "self-cleavage": 0.14}
{"variant": "G11C G50U", "self-cleavage": 0.867}
{"variant": "G11C G50A", "self-cleavage": 0.826}
{"variant": "G11C G65C", "self-cleavage": 0.409}
{"variant": "G11C G65U", "self-cleavage": 0.53}
{"variant": "A10U G30A", "self-cleavage": 0.922}
{"variant": "A10U G30C", "self-cleavage": 0.992}
{"variant": "G11C U46A", "self-cleavage": 0.866}
{"variant": "G11C U46C", "self-cleavage": 0.787}
{"variant": "G11C U46G", "self-cleavage": 0.849}
{"variant": "G11C A42G", "self-cleavage": 0.51}
{"variant": "G11C A42U", "self-cleavage": 0.41}
{"variant": "G11C G19C", "self-cleavage": 0.145}
{"variant": "G11C G56U", "self-cleavage": 0.359}
{"variant": "G11C G56A", "self-cleavage": 0.564}
{"variant": "A10U G25C", "self-cleavage": 0.155}
{"variant": "A10U G25U", "self-cleavage": 0.162}
{"variant": "G11A G25C", "self-cleavage": 0.103}
{"variant": "G11A G25U", "self-cleavage": 0.176}
{"variant": "G11U C29U", "self-cleavage": 0.142}
{"variant": "G11U C29A", "self-cleavage": 0.202}
{"variant": "G11U C29G", "self-cleavage": 0.149}
{"variant": "G11A A23C", "self-cleavage": 0.775}
{"variant": "G11A A23G", "self-cleavage": 0.792}
{"variant": "G11A A23U", "self-cleavage": 0.855}
{"variant": "G11C C12A", "self-cleavage": 0.653}
{"variant": "G11U A23G", "self-cleavage": 0.651}
{"variant": "G11U A23C", "self-cleavage": 0.685}
{"variant": "G11U A23U", "self-cleavage": 0.945}
{"variant": "G11A U26A", "self-cleavage": 0.676}
{"variant": "G11A C66U", "self-cleavage": 0.967}
{"variant": "G11A U69G", "self-cleavage": 1.01}
{"variant": "G11A U69A", "self-cleavage": 0.973}
{"variant": "G11C U55C", "self-cleavage": 0.243}
{"variant": "G11C U64C", "self-cleavage": 0.424}
{"variant": "G11C U64A", "self-cleavage": 0.385}
{"variant": "G11A A42U", "self-cleavage": 0.548}
{"variant": "G11A A42C", "self-cleavage": 0.544}
{"variant": "G11A A42G", "self-cleavage": 0.586}
{"variant": "G11C C35G", "self-cleavage": 0.209}
{"variant": "G11U A40G", "self-cleavage": 0.668}
{"variant": "G11U A40C", "self-cleavage": 0.213}
{"variant": "G11C A52U", "self-cleavage": 0.628}
{"variant": "G11C A52C", "self-cleavage": 0.551}
{"variant": "G11C A52G", "self-cleavage": 0.838}
{"variant": "G11C G31A", "self-cleavage": 0.693}
{"variant": "G11A C63A", "self-cleavage": 0.75}
{"variant": "G11A C63G", "self-cleavage": 0.493}
{"variant": "G11C U26A", "self-cleavage": 0.387}
{"variant": "G11C U26G", "self-cleavage": 0.417}
{"variant": "G11C U26C", "self-cleavage": 0.729}
{"variant": "G11A G14C", "self-cleavage": 0.267}
{"variant": "G11A G14A", "self-cleavage": 0.119}
{"variant": "G11A C24A", "self-cleavage": 0.345}
{"variant": "G11A C24U", "self-cleavage": 0.259}
{"variant": "G11A C24G", "self-cleavage": 0.16}
{"variant": "G11C U61A", "self-cleavage": 0.424}
{"variant": "G11C U61G", "self-cleavage": 0.383}
{"variant": "G11A C34U", "self-cleavage": 0.93}
{"variant": "G11A G58A", "self-cleavage": 0.842}
{"variant": "G11A G58U", "self-cleavage": 0.905}
{"variant": "G11A G58C", "self-cleavage": 0.876}
{"variant": "G11A U62C", "self-cleavage": 0.391}
{"variant": "G11A U62A", "self-cleavage": 0.537}
{"variant": "G11C C27A", "self-cleavage": 0.177}
{"variant": "G11C C27U", "self-cleavage": 0.0897}
{"variant": "A10U U36A", "self-cleavage": 0.291}
{"variant": "G11C C24U", "self-cleavage": 0.334}
{"variant": "G11C C24A", "self-cleavage": 0.321}
{"variant": "G11A U61C", "self-cleavage": 0.268}
{"variant": "G11A U61A", "self-cleavage": 0.452}
{"variant": "G11A U61G", "self-cleavage": 0.392}
{"variant": "G11A C45G", "self-cleavage": 0.859}
{"variant": "G11A A52U", "self-cleavage": 0.837}
{"variant": "G11A A52C", "self-cleavage": 0.865}
{"variant": "G11C C45A", "self-cleavage": 0.757}
{"variant": "G11C C45U", "self-cleavage": 0.804}
{"variant": "G11A U64G", "self-cleavage": 0.661}
{"variant": "G11A U64A", "self-cleavage": 0.655}
{"variant": "G11A U64C", "self-cleavage": 0.513}
{"variant": "G11C C66A", "self-cleavage": 0.844}
{"variant": "G11A A16U", "self-cleavage": 0.352}
{"variant": "G11A A16C", "self-cleavage": 0.0873}
{"variant": "G11A A16G", "self-cleavage": 0.575}
{"variant": "G11C U49A", "self-cleavage": 0.882}
{"variant": "G11A U49G", "self-cleavage": 0.965}
{"variant": "G11A U49A", "self-cleavage": 0.926}
{"variant": "A10U C57G", "self-cleavage": 0.307}
{"variant": "A10U C57U", "self-cleavage": 0.369}
{"variant": "G11U A16U", "self-cleavage": 0.48}
{"variant": "G11U A16C", "self-cleavage": 0.101}
{"variant": "G11C G30C", "self-cleavage": 0.435}
{"variant": "G11C G30A", "self-cleavage": 0.522}
{"variant": "G11C G37A", "self-cleavage": 0.217}
{"variant": "G11C G37C", "self-cleavage": 0.103}
{"variant": "A10U U55A", "self-cleavage": 0.888}
{"variant": "A10U U55G", "self-cleavage": 0.888}
{"variant": "G11U A52G", "self-cleavage": 0.901}
{"variant": "A10U U26A", "self-cleavage": 0.917}
{"variant": "A10U U26C", "self-cleavage": 0.986}
{"variant": "G11C C29U", "self-cleavage": 0.12}
{"variant": "G11C C29G", "self-cleavage": 0.139}
{"variant": "G11C C29A", "self-cleavage": 0.181}
{"variant": "A10U G56C", "self-cleavage": 0.84}
{"variant": "G11C C34G", "self-cleavage": 0.578}
{"variant": "G11C C34U", "self-cleavage": 0.901}
{"variant": "G11C C34A", "self-cleavage": 0.615}
{"variant": "A10U G11U", "self-cleavage": 0.908}
{"variant": "G11A C35A", "self-cleavage": 0.242}
{"variant": "G11A C35U", "self-cleavage": 0.861}
{"variant": "A10U G31C", "self-cleavage": 0.262}
{"variant": "G11A G41C", "self-cleavage": 0.278}
{"variant": "G11A G41U", "self-cleavage": 0.342}
